The assay concerns the target FCγ receptor II (CD32), endogenous on K562 and U937 cells (human (endogenous in K562 and U937)) (UniProt P12318).
Sequence of UniProt P12318 (P12318 34-317): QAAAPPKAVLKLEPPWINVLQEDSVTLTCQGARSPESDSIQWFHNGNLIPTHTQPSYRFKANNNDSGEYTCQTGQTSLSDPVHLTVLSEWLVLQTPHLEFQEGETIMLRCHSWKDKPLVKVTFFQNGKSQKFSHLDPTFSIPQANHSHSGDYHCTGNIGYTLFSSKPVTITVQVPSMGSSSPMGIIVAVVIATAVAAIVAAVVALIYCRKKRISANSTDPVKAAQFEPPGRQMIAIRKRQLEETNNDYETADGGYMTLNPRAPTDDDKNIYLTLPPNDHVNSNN

As to “anti-Vα24Jα18 TCR mAb (6B11 mAb) (antibody)”, the CD107a^+ iNKT cells (treated with 6B11 mAb 50 ng/mL overnight, washed) after coculture with K562 cells, E/T 2:1, in the presence of the blocking anti-CD32 mAb (10 µg/mL) was 1.8%; the CD107a^+ iNKT cells (treated with 6B11 mAb 50 ng/mL overnight, washed) after coculture with K562 cells, E/T 2:1, with isotype mIgG1 (10 µg/mL) was determined as 52.8%; the CD107a^+ iNKT cells (treated with 6B11 mAb 50 ng/mL overnight, washed) after coculture with U937 cells, E/T 2:1, in the presence of the anti-CD32 mAb was 15.6%; the CD107a^+ iNKT cells (treated with 6B11 mAb 50 ng/mL overnight, washed) after coculture with U937 cells, E/T 2:1, with mIgG1 as a control was found to be 38.3%.

The record behind these values is article PMC10875981.
